Target: the molecule itself
Assay: self-association: reducing and non-reducing SDS-PAGE and size exclusion chromatography of purified mHRF-His6

B1: C-terminally hexahistidine-tagged mouse HRF (mHRF-His6) (ligand)
chain: MIIYRDLISHDELFSDIYKIREIADGLCLEVEGKMVSRTEGAIDDSLIGGNASAEGPEGEGTESTVVTGVDIVMNHHLQETSFTKEAYKKYIKDYMKSLKGKLEEQKPERVKPFMTGAAEQIKHILANFNNYQFFIGENMNPDGMVALLDYREDGVTPFMIFFKDGLEMEKCHHHHHH
notes: Expressed in E. coli BL21(DE3) from pET-24a(+)
  binding result: binds
